Measurements as given in US11618913B2, “Method for preparing xyloglucan-oligosaccharides” (TECHNISCHE UNIVERSITÄT MÜNCHEN, priority 2017, dated 2023).
“Also recorded” adds a separate entry of the source. Blank lines part the entries; values can stand above or below the molecule they belong to.

Assays:
Format in all cases: biochemical
[1] = Hydrolysis of 20% (wt/vol) TKP/dTKP, XGOS release by HPAEC-PAD; conditions: 20% (wt/vol) dTKP/TKP, 60° C.
Experimental: For XGOS release 20% (wt/vol) 8 g of TKP or dTKP was dissolved in 40 ml demineralized water at 60° C. The enzyme was added at the desired concentrations, 3%, 0.65%, 0.05%, 0.03% or 0.006% (wt/wt TKP) referred to the substrate load. Incubation of the reaction mixture was carried out on a rotary shaker at 125 rpm and 60° C. The hydrolysis process was monitored by taking samples at different time points. The samples were centrifuged and the supernatant boiled for 5 min at 95° C. to denature residual proteins. For analysis, samples of the supernatant were withdrawn, tenfold diluted with double deionized water and measured by HPAEC-PAD.
For the analysis by HPAEC-PAD an ICS 3000 Dionex chromatography system from Thermo Fisher Scientific (Waltham, USA) equipped with a CarboPac™ PA1 column (4×250 mm) and a PA1-precolumn (4×50 mm) was used. The system was set up using PEEK tubing (0.25 mm i.d.), a GM-4 gradient mixer (2 mm), an ED amperometry cell with 0.25 microL channel volume, a pH-Ag/AgCl reference electrode, 0.002″ gasket and disposable gold electrodes. Runs were performed at a column temperature of 30° C. with an injection volume of 25 microL and a flow rate of 1 mL/min. […]
Quantification was performed using a XGOS standard mixture from Megazyme with 0.4 g/L, 0.2 g/L, 0.1 g/L, and 0.05 g/L.

[2] = Specific enzyme activity, reducing sugars by DNSA assay; conditions: dockerin domain deleted
Experimental: Enzyme activity: the release of micromol reducing sugars from arabinoxylan per mg of enzyme was determined with the DNSA assay.
Specific enzyme activity was determined by using a model substrate such as barley-beta-glucan (Megazyme). Endoglucanase activity is defined as the generation of reducing sugars from the model substrate. One unit of enzyme activity is defined as the amount of reducing sugars in micromol generated per mg of enzyme in one minute at 60° C. To define the enzyme profile and temperature and pH optimum the endoglucanases (50 ng/reaction) were incubated for 30 minutes at a temperature range from 50 to 80° C. in presence of 1% (wt/vol) barley-beta-glucan solved in citrate buffer with varying pH (range 4.0-8.0) (solution A: 0.2 M citric acid, 0.1 M NaCl; solution B: 0.4 M Na2HPO4, 0.1 M NaCl). Reducing sugars were measured by 3,5-dinitrosalicylic acid (DNSA) method: 50 microL sample were mixed with 75 microL DNSA-solution (10 g/L DNSA, 200 g/L K^+-Na^+-Tartrate, 10 g/L NaOH, 0.5 g/L Na2SO4, 2 g/L Phenol) in microtiter plates, incubated for 5 minutes at 95° C., cooled on ice and the absorption determined at 540 nm. For calibration, glucose solutions between 0 and 2 mg/mL were used.

[3] = Ki determination (end product inhibition) on Azo-Xyloglucan in presence of xyloglucan oligosaccharides; conditions: inhibition by xyloglucan oligosaccharides; non-competitive inhibition model; substrate 1-20 g/l
Experimental: To evaluate the suitability of SEQ ID NOs 1-4 for TKP hydrolysis, the Ki value of SEQ ID NO 3 was determined. Enzymatic activity was measured on Azo-Xyloglucan (Megazyme) according to the manufacturer's instruction. Substrate concentrations of 1-20 g/I were chosen and enzymatic activity was measured in the presence of increasing concentrations of xyloglucan oligosaccharides. Mode of Inhibition was assessed using a Lineweaver-Burke plot.

B1: SEQ ID NO 2: wildtype glycoside hydrolase family 5 endoglucanase from Herbivorax saccincola DSM101079 (protein, listed as Herbivorax saccincola)
chain: STAYTGMRDITSLELVNEMRIGWNLGNTLDAIGGETNWGNPKTTKEMIDKVKEMGFNTVRFPVTWGGHVGPAPDYKIDEGWLNRVEEVVNYALSNDMYAIINLHHENSWLVPTYAQEKRSTEQLVKIWEQVATRFKDYGDYLIFETMNEPRVENSPYEWSGGTPENRHVINNFNLAAVNTIRSTGGNNAKRHIMIPAHAASAIDIALNDLVIPNNDDRIIISVHNYSPYFFAMDVNGTASWGSDYDKASLAAELEALYNRFIKNGRAVVIGEFGSINKNNLSDRIRHAEFFAKEARKRGITVIWWDNGYNEGGKAESYALLDRRNLTWYHPEIAEALVRGAGGVPEPTPTPTPEPTPSPGEDILYGDLNGDGIINSIDYNLLNRYILEVIDDLPVENYSKVADLNGDGVINSNDAVLLGRFILEIVDKFPVDK
hydrolysis of TKP to DP7-DP9 after 24 h ([1]; 0.03% (wt/wt) enzyme): Complete hydrolysis; also recorded: completely

B2: SEQ ID NO 4: endoglucanase obtained from SEQ ID NO: 2 by deleting the dockerin domain (protein)
chain: STAYTGMRDITSLELVNEMRIGWNLGNTLDAIGGETNWGNPKTTKEMIDKVKEMGFNTVRFPVTWGGHVGPAPDYKIDEGWLNRVEEVVNYALSNDMYAIINLHHENSWLVPTYAQEKRSTEQLVKIWEQVATRFKDYGDYLIFETMNEPRVENSPYEWSGGTPENRHVINNFNLAAVNTIRSTGGNNAKRHIMIPAHAASAIDIALNDLVIPNNDDRIIISVHNYSPYFFAMDVNGTASWGSDYDKASLAAELEALYNRFIKNGRAVVIGEFGSINKNNLSDRIRHAEFFAKEARKRGITVIWWDNGYNEGGKAESYALLDRRNLTWYHPEIAEALVRGAGGVPEPTPTPTPEPTPSPG
enzyme activity increase in comparison to wildtype SEQ ID NO 2 ([2]; SEQ ID NO 2 activity set to 100%): 7 fold

Ki [3]: 16.8 mM
B3: SEQ ID NO 3: endoglucanase obtained from SEQ ID NO: 1 by deleting the dockerin domain (protein)
chain: AKITENYQFDSRIRLNSIGFIPNHSKKATIAANCSTFYVVKEDGTIVYTGTATSMFDNDTKETVYIADFSSVNEEGTYYLAVPGVGKSVNFKIAMNVYEDAFKTAMLGMYLLRCGTSVSATYNGIHYSHGPCHTNDAYLDYINGQHTKKDSTKGWHDAGDYNKYVVNAGITVGSMFLAWEHFKDQLEPVALEIPEKNNSIPDFLDELKYEIDWILTMQYPDGSGRVAHKVSTRNFGGFIMPENEHDERFFVPWSSAATADFVAMTAMAARIFRPYDPQYAEKCINAAKVSYEFLKNNPANVFANQSGFSTGEYATVSDADDRLWAAAEMWETLGDEEYLRDFENRAAQFSKKIEADFDWDNVANLGMFTYLLSERPGKNPALVQSIKDSLLSTADSIVRTSQNHGYGRTLGTTYYWGCNGTVVRQTMILQVANKISPNNDYVNAALDAISHVFGRNYYNRSYVTGLGINPPMNPHDRRSGADGIWEPWPGYLVGGGWPGPKDWVDIQDSYQTNEIAINWNAALIYALAGFVNYN
modifications: Recombinat polypeptide
degree of hydrolysis after 24 h ([1]; 0.006% (wt/wt) enzyme): over 80%
enzyme activity increase in comparison to SEQ ID NO 1 ([2]; SEQ ID NO 1 activity set to 100%): 4 fold
